Values quoted from earlier work in paper PMC6158072.

Legend:
Cys = conditions: not stated (presumably the reduced thiol form)

Substance	pKa (Lys)	pKa (Cys)
Acetoacetate decarboxylase (not stated (Clostridium acetobutylicum inferred))	around 6	
Peroxiredoxin 5 (Prx5) (Homo sapiens)		5.5
